Blank lines part the entries; values can stand above or below the binder they belong to.
What was measured:
human Protein S [1] = target: T1, human Protein S (human, UniProt P07225 42-676); experiment: cell-based or functional assay
T1 sequence: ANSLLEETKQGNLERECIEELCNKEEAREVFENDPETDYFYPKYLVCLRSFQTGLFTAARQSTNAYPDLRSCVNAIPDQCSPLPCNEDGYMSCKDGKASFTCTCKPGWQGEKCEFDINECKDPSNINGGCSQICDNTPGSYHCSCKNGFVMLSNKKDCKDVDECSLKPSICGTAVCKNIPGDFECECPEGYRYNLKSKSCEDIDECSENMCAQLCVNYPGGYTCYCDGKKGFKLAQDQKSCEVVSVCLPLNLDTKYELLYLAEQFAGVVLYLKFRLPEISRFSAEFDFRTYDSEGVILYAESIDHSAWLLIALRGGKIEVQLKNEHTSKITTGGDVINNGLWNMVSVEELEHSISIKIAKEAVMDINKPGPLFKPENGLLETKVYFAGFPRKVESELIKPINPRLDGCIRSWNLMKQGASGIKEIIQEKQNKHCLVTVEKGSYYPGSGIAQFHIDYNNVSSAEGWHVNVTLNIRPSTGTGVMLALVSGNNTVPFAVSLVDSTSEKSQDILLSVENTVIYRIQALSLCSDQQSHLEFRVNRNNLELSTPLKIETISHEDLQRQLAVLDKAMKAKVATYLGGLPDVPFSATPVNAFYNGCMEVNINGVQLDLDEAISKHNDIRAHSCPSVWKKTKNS

human Protein S [2] = target: T1, human Protein S; experiment: ELISA; plate coated with human Protein S; 1 µg/ml antibody; 1 mM EDTA
Description: (§1) Calcium dependence of binding was determined using an ELISA based method. Briefly, high binding ELISA plates were coated with human Protein S. Then, buffer containing 1 μg/ml of antibody was applied to the well with either buffer containing 1 mM EDTA or 1 mM calcium chloride.

[3] = target: T2, recombinant heavy chain Protein S (human, UniProt P07225 42-296); experiment: ELISA; plate coated with recombinant Protein S heavy chain; 1 mM CaCl2
T2 construct: Fragment of Protein S spanning amino acids 42-296, expressed and purified from HEK293 cells; also called Protein S heavy chain; heavy chain of Protein S
T2 sequence: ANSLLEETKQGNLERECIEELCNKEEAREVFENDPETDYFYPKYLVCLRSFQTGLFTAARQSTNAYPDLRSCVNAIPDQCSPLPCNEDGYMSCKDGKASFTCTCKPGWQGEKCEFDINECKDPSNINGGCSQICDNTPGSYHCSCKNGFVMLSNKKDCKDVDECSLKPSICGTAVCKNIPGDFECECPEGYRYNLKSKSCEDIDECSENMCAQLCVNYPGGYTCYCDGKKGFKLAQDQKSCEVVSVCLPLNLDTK
Description: (§2) Binding to the heavy chain of Protein S was determined using an ELISA based method. Briefly, high binding ELISA plates were coated with recombinant heavy chain Protein S expressed and purified from HEK293 cells. The “heavy chain” of Protein S represents a fragment of Protein S spanning amino acids 42-296. The coated plate was blocked with 1% casein solution. Then, buffer containing […] of antibody was applied to the well with buffer containing 1 mM calcium chloride.

human Protein S [4] = target: T1, human Protein S; experiment: ELISA; plate coated with human Protein S; 1 µg/ml antibody; 1 mM calcium chloride
Description: as §1

[5] = target: T2, recombinant heavy chain Protein S; experiment: ELISA on recombinant Protein S heavy chain
Description: as §2

IC50 APC (human Protein S [1]): 6.23 nM
Binding to Protein S in EDTA (OD) (human Protein S [2]): 1.4 OD
Binding to heavy chain (OD) [3]: 1.58 OD
Binding to Protein S in CaCl2 (OD) (human Protein S [4]): 1.92 OD
B1: Antibody 21 (antibody, V domains shown)
VH: QVQLVQSGAEVKKPGSSVKVSCKASGDTFSNHAINWVRQAPGQGLEWMGGYIPIFGTTNSAQKFRGRVTITADKSTNTAYMALSSLRSEDTAVYYCARGGLAGSHYKNYYYDGMDVWGQGTTVTVSS
VL: not shown
notes: Human variable region with rat Fc

IC50 APC (human Protein S [1]): 95.8 nM
binding result [5]: no binding
Binding to Protein S in EDTA (OD) (human Protein S [2]): 0.06 OD
Binding to heavy chain (OD) [3]: 0.16 OD
Binding to Protein S in CaCl2 (OD) (human Protein S [4]): 0.51 OD
B2: Antibody 34 (antibody, V domains shown)
VH: QVQLQQSGTELVRPGTSVKMSCKAAGYTFTNHWIGWVKQRPGHGLEWIGDIYPGGGYTNYNEKFKGKASLTADTSSTTAYMQLSSLTSEDSAIYYCSRFGDQNWAWFAYWGQGTLVTVSA
VL: DIQMNQSPSSLSASLGDTITITCRASQNIHMWLSWYQQKPGNIPKLLIFKTSNLHTGVPSRFSGSGSGTDFTLTISSLQPEDIATYYCLQGQSYPFTFGGGTKLEIK

IC50 APC (human Protein S [1]): 12.8 nM
Binding to Protein S in EDTA (OD) (human Protein S [2]): 0.1 OD
Binding to heavy chain (OD) [3]: 0.6 OD
Binding to Protein S in CaCl2 (OD) (human Protein S [4]): 1.96 OD
B3: Antibody 18 (antibody, V domains shown)
VH: QVQLQESGPGLVKPSETLSLTCTVSGGSISNYYWNWIRQPPGKGLEWIGYIYYIGITDYNPSLKSRVTISVDTSKNQFSLKVTSVTAADTAVYYCAALSGDHAFDIWGQGTLVTVSS
VL: not shown
notes: as for B1

IC50 TFPI (human Protein S [1]): < 4.4 nM
binding result [5]: no binding
Binding to Protein S in EDTA (OD) (human Protein S [2]): 0.26 OD
Binding to heavy chain (OD) [3]: 0.1 OD
Binding to Protein S in CaCl2 (OD) (human Protein S [4]): 0.57 OD
B4: Antibody 23 (antibody, V domains shown)
VH: QVQLVQSGAEVKKPGASVKVSCKSSGHTFTGYYMHWVRQAPGQGLEWMGWINPNSGDTNYAQKFQGRVTMTRDTSISTAYMEMSRLRSDDTAVYYCARDSQILWFGELGYWGQGTLVTVSS
VL: QAVVTQESALTTSPGETVTLTCRSSTGAVTASNYANWVQEKPDHLFTGLIGSTNNRAPGVPARFSGSLIGDKAALTITGAQTEDEAIYFCALWYSDHFVFGGGTKLTVL
notes: as for B1

IC50 APC (human Protein S [1]): 492 nM
Binding to Protein S in EDTA (OD) (human Protein S [2]): 0.89 OD
Binding to heavy chain (OD) [3]: 0.48 OD
Binding to Protein S in CaCl2 (OD) (human Protein S [4]): 1.17 OD
B5: Antibody 44 (antibody, V domains shown)
VH: QVQLVQSGAEVKKPGASVKVSCKASGYTFTSYYIHWVRQAPGQGLEWMGVTSPSGRSTSFAQKFQGRVTMTRDTSTSAVYMDLDSLRSEDTAVYYCARGGVTIHLERRGYFDYWGQGTLVIVSS
VL: not shown
notes: as for B1

IC50 APC (human Protein S [1]): 99 nM
binding result [5]: no binding
Binding to Protein S in EDTA (OD) (human Protein S [2]): 0.63 OD
Binding to heavy chain (OD) [3]: 0.13 OD
Binding to Protein S in CaCl2 (OD) (human Protein S [4]): 1.03 OD
B6: Antibody 31 (antibody, V domains shown)
VH: QVQLQESGPGLVKPSETLSLTCTVSGGSISGNYWSWIRQPPGKGLEWIGYIYYSGSTNYNPSLKSRVTISVDTSKNQFSLKLSSVTAADTAVYYCARDLDYFTWGAYSDWYFDLWGRGTLVTVSS
VL: DIQMTQSPSSLSASVGDRVTITCRASQSISTFLNWYQQKPGKAPKLLIYATSSLRSGVPSRFSGSGSGTDFTLTISSLQPEDFAIYYCQQSYSTPRTFGQGTQVEIK
notes: as for B1

IC50 APC (human Protein S [1]): 58.1 nM
IC50 TFPI (human Protein S [1]): 34 nM
binding result [5]: no binding
Binding to Protein S in EDTA (OD) (human Protein S [2]): 0.2 OD
Binding to heavy chain (OD) [3]: 0.11 OD
Binding to Protein S in CaCl2 (OD) (human Protein S [4]): 1.23 OD
B7: Antibody 33 (antibody, V domains shown)
VH: QVQLQQSGPGLVKPSQTLSLTCAISGDSVSNNNAAWNWIRQSPSRGLEWLGGTYYRSKWYNDYAVSVKSRIIINPVTSKNQFSLQLNSVTPEDTAVYYCARGSSWYRFFDYWGQGTLVTVSS
VL: EIVLTQSPGTLSLSPGERATLSCRASQSVGSSYLAWYQQKPGQAPRLLISGASGRATGIPDRFSGSGSGTDFTLTISRLEPEDFTVYYCQQYGSSPYTFGQGTKLEIK
notes: as for B1

IC50 APC (human Protein S [1]): 14 nM
IC50 TFPI (human Protein S [1]): 46.3 nM
Binding to Protein S in EDTA (OD) (human Protein S [2]): 0.17 OD
Binding to heavy chain (OD) [3]: 1.67 OD
Binding to Protein S in CaCl2 (OD) (human Protein S [4]): 1.95 OD
B8: Antibody 16 (antibody, V domains shown)
VH: QVQLVESGGGVVQPGRSLRLSCAASGFTFSTYGFHWVRQPPGKGLEWVAVIYYDGINKYYADSVKGRFTISRDNSKNTLFLQMNSLRAEDTAVYYCAESDLDYWGQGTLVTVSS
VL: EIVLTQSPATLSLSPGERATLSCRASQSVSIYLAWYQQKPGQAPRLLIYDASNRATGIPARFSGSGSGTDFTLTISSLEPEDFAVYYCQQRSNWPLTFGPGTKVDIK
notes: as for B1

IC50 APC (human Protein S [1]): 13.5 nM
IC50 TFPI (human Protein S [1]): 77.3 nM
Binding to Protein S in EDTA (OD) (human Protein S [2]): 0.07 OD
Binding to heavy chain (OD) [3]: 1.78 OD
Binding to Protein S in CaCl2 (OD) (human Protein S [4]): 1.86 OD
B9: Antibody 15 (antibody, V domains shown)
VH: EVQLVESGGGLVQPGRSLRLSCAASGFTFDDYAMHWVRQAPGKGLEWVSGITWNSGNIGYADSVKGRFTISRDNAKNSLYLHMNSLRIEDTAFYYCAKGRAVSDTFDIWGQGTMVTVSS
VL: SYELNQPPSVSVSPGQTASITCSGDKLGDKYASWYQQKPGQSPVVAIYQNSKRPSGIPERFSASNSGNTATLTISGTQALDEADYYCQAWDSSTWVFGGGTKLTVL
notes: as for B1

IC50 APC (human Protein S [1]): 12.8 nM
Binding to Protein S in EDTA (OD) (human Protein S [2]): 0.26 OD
Binding to heavy chain (OD) [3]: 1.54 OD
Binding to Protein S in CaCl2 (OD) (human Protein S [4]): 1.93 OD
B10: Antibody 20 (antibody, V domains shown)
VH: QVQLQESGPGLVKPSETLSLTCAVSGYSISSGYYWGWIRQPPGKGLDWIGSIYYSGSTYYNPSLKSRVTISVDTSKNQISLKLSSVTAADTAVYYCATTYSDIVTGYYNDAFDIWGQGTMVTVSS
VL: EIVMTQSPATLSVSPGERATLSCRASQRINSNLAWYQQKPGQAPRLLIYGASTRATGIPARFSGSGSGTEFTLTISSLQSEDFAAYYCQQYDNWPLTFGGGTKVEIK
notes: as for B1

IC50 APC (human Protein S [1]): 8.76 nM
IC50 TFPI (human Protein S [1]): 73.3 nM
Binding to Protein S in EDTA (OD) (human Protein S [2]): 0.75 OD
Binding to heavy chain (OD) [3]: 2.03 OD
Binding to Protein S in CaCl2 (OD) (human Protein S [4]): 2.03 OD
B11: Antibody 14 (antibody, V domains shown)
VH: QVQLQESGPGLVKPSQTLSLTCTVSGGSITSDGYHWSWIRQYPGKGLDWIGYIYYTGNTYYNPSLKSRVTISVGTSQNQFSLKLISVTAADTAVYYCARRLSTGPYFDYWGQGTLVTVSS
VL: QSALTQPASVSGSPGQSITISCTGTSSDVGGYEFVSWYQHHPGKAPKLMIYDVSSRPSGVSNRFSGSKSGNTASLTISGLQAEDEADYYCSSYTRSSTVVFGGGARLTVL
notes: as for B1

IC50 APC (human Protein S [1]): 5.3 nM
IC50 TFPI (human Protein S [1]): 51.1 nM
Binding to Protein S in EDTA (OD) (human Protein S [2]): 0.48 OD
Binding to heavy chain (OD) [3]: 1.63 OD
Binding to Protein S in CaCl2 (OD) (human Protein S [4]): 1.77 OD
B12: Antibody 13 (antibody, V domains shown)
VH: QVQLVQSGAEVKKPGSSVKVSCKVSGGTFSSYSISWVRQAPGQGLEWMGGIIPIFGTTNYAQKFQGRVTITADESTSTAYMDLSSLKSEDTAMYYCEGGRVGADFDYWGQGTLVTVSS
VL: SSDLTQGPAVSVALGQTVRITCQGDSLRNYYASWYQQKPGQAPVPVIYGKNDRPSGIPDRFSGSISGNTASLTITGAQAEDEAHYYCNSRDSSGNHVVFGGGTKLTVL
notes: as for B1

IC50 APC (human Protein S [1]): 81.2 nM
IC50 TFPI (human Protein S [1]): 105 nM
Binding to Protein S in EDTA (OD) (human Protein S [2]): 0.06 OD
Binding to heavy chain (OD) [3]: 0.61 OD
Binding to Protein S in CaCl2 (OD) (human Protein S [4]): 1.68 OD
B13: Antibody 19 (antibody, V domains shown)
VH: QLQLQESGPGLVKPSETLSLTCTVSGGSISSSSYYWGWIRQPPGKGLEWIGNIYYSGNTYYNPSLKSRVTISVDTSKNQFSLKLSSMTAADTAVYYCARCSGYGYSSGRSYFDYWGQETLVTVSS
VL: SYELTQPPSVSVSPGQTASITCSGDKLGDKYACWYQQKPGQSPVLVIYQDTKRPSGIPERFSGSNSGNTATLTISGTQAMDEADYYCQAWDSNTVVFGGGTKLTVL

IC50 APC (human Protein S [1]): 17.9 nM
IC50 TFPI (human Protein S [1]): 73.6 nM
Binding to Protein S in EDTA (OD) (human Protein S [2]): 0.06 OD
Binding to heavy chain (OD) [3]: 0.71 OD
Binding to Protein S in CaCl2 (OD) (human Protein S [4]): 1.72 OD
B14: Antibody 24 (antibody, V domains shown)
VH: QVQLQESGPGLVKPSETLSLTCGVSGGSISSTNWWSWVRQPPGKGLEWIGEIYQTGSTDYDPSLKSRVTISIDKSKNQFSLKLYSVTAADTAVYYCARRFGELDYWGQGTLVTVSS
VL: EIVMTQSPATLSVSPGERATLSCRASQSVTSNLAWYQQKPGQAPRLLIYDASTRATGIPARFSGSGSGTEFTLTISSLQSEDFAIYYCQQYNNWPTFGQGTRLEIK
notes: as for B1

— patent US20230083243A1 (VEGA THERAPEUTICS, published 2023)
